Results published in publication PMC6093232, “PROMIS, global analysis of PROtein–metabolite interactions using size separation in Arabidopsis thaliana” (The Journal of Biological Chemistry, 2018).

Target: His6-GAPC1/2 (cytosolic glyceraldehyde-3-phosphate dehydrogenase, GAPC1 or GAPC2) (A. thaliana, UniProt P25858 1-338)
Experiment: nano-DSF (thermal shift, Prometheus NT.48); plant GAPCs 0.2–0.25 mg/ml with 25 μM (GAPC1/2, GAPCP1) or 50 μM (GAPCP2) dipeptide in 1× PBS; thermal ramp 2 °C/min, 20–90 °C; Tm from F350/F330
Details: both partners purified

His6-GAPC1/2 (cytosolic glyceraldehyde-3-phosphate dehydrogenase, GAPC1 or GAPC2), sequence (P25858 whole entry): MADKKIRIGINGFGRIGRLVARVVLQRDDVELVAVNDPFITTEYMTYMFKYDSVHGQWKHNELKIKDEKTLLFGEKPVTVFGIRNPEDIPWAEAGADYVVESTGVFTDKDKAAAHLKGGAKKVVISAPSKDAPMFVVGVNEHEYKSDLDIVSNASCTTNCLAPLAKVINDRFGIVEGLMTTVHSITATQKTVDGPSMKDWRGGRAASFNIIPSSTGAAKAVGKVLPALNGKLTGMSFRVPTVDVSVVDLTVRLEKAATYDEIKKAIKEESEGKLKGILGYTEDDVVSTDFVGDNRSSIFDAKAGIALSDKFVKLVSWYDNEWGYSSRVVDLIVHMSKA

B1: dipeptide Tyr–Asp (peptide)
peptide: YD
notes: free dipeptide Tyr–Asp, printed in three-letter code; source: synthetic peptide; bought: Eurogentec
decrease of Tm with 25 μM Tyr–Asp: ~1 °C
